Results: PMC9121323, “Using fluorescence anisotropy to monitor chaperone dispersal of RNA-binding protein condensates”

Molecular target: Pab1 monomer (poly(A)-binding protein) (Saccharomyces cerevisiae, UniProt P04147 1-577)
Experiment: fluorescence anisotropy; monomer calibration, titration regime; Kd cannot be determined; 1x disaggregation buffer (composition not in the material), 30 C, 15 uL samples, fluorescein ex/em 485/535 nm; 0.2 uM A19 RNA used for gain setting
Conditions: protein: recombinant; tags: 8xHis-TEV site tag, removed by TEV protease; label: 5' 6-FAM; single strand

Sequence of Pab1 monomer (poly(A)-binding protein) (P04147 whole entry): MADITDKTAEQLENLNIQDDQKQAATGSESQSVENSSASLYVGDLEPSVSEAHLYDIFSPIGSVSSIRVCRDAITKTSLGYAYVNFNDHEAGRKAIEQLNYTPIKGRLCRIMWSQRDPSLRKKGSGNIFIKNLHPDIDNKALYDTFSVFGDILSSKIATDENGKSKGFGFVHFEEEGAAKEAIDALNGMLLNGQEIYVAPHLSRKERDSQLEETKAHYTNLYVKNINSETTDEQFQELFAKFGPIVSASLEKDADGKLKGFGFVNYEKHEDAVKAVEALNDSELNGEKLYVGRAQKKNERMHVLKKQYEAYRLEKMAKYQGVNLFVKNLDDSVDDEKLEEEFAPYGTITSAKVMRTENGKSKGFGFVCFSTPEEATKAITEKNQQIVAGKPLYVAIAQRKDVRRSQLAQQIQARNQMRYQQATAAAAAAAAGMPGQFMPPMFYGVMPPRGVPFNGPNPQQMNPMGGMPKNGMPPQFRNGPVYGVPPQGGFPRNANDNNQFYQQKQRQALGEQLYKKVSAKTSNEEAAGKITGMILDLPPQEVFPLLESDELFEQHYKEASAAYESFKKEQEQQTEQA

AAAAAAAAAAAAAAAAAAA (ssRNA) [Fluorescein-A19 RNA]: binds.
